Biological target: T1, AKAP12 with its five activation-responsive phospho-sites deleted by CRISPR-directed HDR, human HSCs (human (endogenous locus in primary …, UniProt Q02952-1 1-1782, deletion of the five phospho-sites T675, S676, S678, S687, S688 (PDEL; limits …)
T1 construct: human AKAP12 with the region of the phospho-sites T675, S676, S678, S687, S688 deleted; The transfected cells are a mixture of edited and unedited cells; the co-precipitate with the AKAP12 antibody holds both forms; also called CRISPR-edited AKAP12; PDEL (human); source: in cell extract and fixed cells
Assay: co-IP; extracts of primary human HSCs (cultured 0, 3 or 6 days; WT or CRISPR-edited HDR cells; negative control or Prkca siRNA A or B); AKAP12-HSP47 co-immunoprecipitation and western blot
Conditions: partners not purified

T1 sequence (Q02952 other isoform, or with tags, fused parts or gaps with the stated changes): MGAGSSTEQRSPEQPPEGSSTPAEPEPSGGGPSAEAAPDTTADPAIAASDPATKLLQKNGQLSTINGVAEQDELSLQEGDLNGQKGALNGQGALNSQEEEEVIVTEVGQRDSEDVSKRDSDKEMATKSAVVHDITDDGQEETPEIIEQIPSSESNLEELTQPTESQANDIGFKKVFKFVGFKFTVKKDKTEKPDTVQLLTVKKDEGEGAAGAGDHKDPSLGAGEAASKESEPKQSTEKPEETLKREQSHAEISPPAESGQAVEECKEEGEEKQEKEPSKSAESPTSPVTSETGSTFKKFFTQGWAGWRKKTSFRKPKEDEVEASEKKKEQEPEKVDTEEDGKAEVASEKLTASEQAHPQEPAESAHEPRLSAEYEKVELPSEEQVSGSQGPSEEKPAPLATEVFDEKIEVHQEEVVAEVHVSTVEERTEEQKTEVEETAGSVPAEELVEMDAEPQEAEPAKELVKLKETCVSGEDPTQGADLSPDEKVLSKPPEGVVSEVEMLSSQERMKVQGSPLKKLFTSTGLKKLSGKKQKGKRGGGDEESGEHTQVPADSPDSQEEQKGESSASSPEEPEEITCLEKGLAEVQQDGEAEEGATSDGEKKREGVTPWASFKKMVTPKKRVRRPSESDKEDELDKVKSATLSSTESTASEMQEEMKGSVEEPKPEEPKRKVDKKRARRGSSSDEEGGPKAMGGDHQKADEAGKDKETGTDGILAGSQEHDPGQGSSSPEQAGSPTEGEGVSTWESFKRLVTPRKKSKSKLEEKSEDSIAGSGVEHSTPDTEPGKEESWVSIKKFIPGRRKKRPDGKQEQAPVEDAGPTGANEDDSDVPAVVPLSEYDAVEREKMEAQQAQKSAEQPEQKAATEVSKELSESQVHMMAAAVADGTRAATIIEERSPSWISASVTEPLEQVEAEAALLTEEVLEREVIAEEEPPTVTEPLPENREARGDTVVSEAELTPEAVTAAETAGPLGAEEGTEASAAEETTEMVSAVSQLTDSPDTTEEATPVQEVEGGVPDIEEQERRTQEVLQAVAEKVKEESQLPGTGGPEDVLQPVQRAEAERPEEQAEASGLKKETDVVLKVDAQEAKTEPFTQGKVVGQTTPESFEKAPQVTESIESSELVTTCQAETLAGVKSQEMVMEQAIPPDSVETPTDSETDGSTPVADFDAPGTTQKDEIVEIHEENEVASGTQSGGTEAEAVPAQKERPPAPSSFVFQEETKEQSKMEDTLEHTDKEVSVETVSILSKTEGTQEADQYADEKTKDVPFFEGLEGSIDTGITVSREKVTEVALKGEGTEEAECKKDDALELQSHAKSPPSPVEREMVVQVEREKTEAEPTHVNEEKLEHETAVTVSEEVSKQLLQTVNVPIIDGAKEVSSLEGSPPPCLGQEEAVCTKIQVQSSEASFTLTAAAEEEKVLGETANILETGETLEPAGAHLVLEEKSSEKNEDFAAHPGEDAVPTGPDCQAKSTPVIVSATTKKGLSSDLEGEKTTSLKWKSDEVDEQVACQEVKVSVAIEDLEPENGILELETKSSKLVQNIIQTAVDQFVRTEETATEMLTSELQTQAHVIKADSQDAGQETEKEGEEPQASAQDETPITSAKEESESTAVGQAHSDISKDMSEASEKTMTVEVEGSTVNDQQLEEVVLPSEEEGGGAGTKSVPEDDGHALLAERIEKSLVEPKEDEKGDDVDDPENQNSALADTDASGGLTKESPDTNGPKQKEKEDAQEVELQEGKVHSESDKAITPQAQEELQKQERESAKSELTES

fold change of the AKAP12-HSP47 co-immunoprecipitate against WT cells: 2.5 fold
B1: heat-shock protein 47 (HSP47), human, endogenous (natural protein, UniProt P50454 19-418, looked up)
chain: AEVKKPAAAAAPGTAEKLSPKAATLAERSAGLAFSLYQAMAKDQAVENILVSPVVVASSLGLVSLGGKATTASQAKAVLSAEQLRDEEVHAGLGELLRSLSNSTARNVTWKLGSRLYGPSSVSFADDFVRSSKQHYNCEHSKINFRDKRSALQSINEWAAQTTDGKLPEVTKDVERTDGALLVNAMFFKPHWDEKFHHKMVDNRGFMVTRSYTVGVMMMHRTGLYNYYDDEKEKLQIVEMPLAHKLSSLIILMPHHVEPLERLEKLLTKEQLKIWMGKMQKKAVAISLPKGVVEVTHDLQKHLAGLGLTEAIDKNKADLSRMSGKKDLYLASVFHATAFELDTDGNPFDQDIYGREELRSPKLFYADHPFIFLVRDTQSGSLLFIGRLVRPKGDKMRDEL
notes: heat-shock protein 47 (HSP47), ER-resident collagen chaperone, human, endogenous in primary HSCs and liver tissue; source: endogenous, primary human HSC extracts and fixed cells; human liver tissue array

Source: paper PMC9531947, “Targeting A-kinase anchoring protein 12 phosphorylation in hepatic stellate cells regulates liver injury and fibrosis in mouse models” (eLife, 2022)
